According to patent US20190309025A1:

How the values were obtained:
[1] = biological target: MR766wt VLPs (Zika virus MR766 prM and E virus-like particles expressed by plasmid pEZMRprME1-8) (Zika virus strain MR766) (UniProt Q32ZE1); experiment: antibody end-point titration on VLPs (COS-1 supernatant)
[2] = biological target: BzHuwt VLPs (Zika virus BPH2015 prM and E VLPs expressed by plasmid pEBZHu2-3, pr1-Ala deletion clone) (Zika virus strain BPH2015); experiment: as above
[3] = biological target: MR766KD VLPs (Zika virus MR766 VLPs with E106/107 GL to KD, expressed by plasmid pEZMRprME KD) (Zika virus strain MR766) (UniProt Q32ZE1); experiment: ratio of antibody end-point titers on wt and KD VLPs
[4] = biological target: BzHuKD VLPs (Zika virus BPH2015 VLPs with E106/107 GL to KD, expressed by plasmid pEBZHu2-3 KD) (Zika virus strain BPH2015); experiment: as above

“flavivirus group-cross reactive murine monoclonal antibody 4G2” was tested, and the Antibody end-point titers [1] was > 2.19e+06, the Antibody end-point titers [2] was 729000 and the Fold changes (MR766wt VLPs against MR766KD VLPs) [3] was > 2190 fold. For the same substance, the Fold changes (BzHuwt VLPs against BzHuKD VLPs) [4] was > 729 fold.
